Laboratory results reported in patent US20190248900A1 (Y BIOLOGICS, published 2019).
Where a chain is given by its changes, count along the chain named.

T1: ITGA6-Fc
T1 construct: Fc fusion
T1 sequence (P23229 whole entry, species assumed, looked up): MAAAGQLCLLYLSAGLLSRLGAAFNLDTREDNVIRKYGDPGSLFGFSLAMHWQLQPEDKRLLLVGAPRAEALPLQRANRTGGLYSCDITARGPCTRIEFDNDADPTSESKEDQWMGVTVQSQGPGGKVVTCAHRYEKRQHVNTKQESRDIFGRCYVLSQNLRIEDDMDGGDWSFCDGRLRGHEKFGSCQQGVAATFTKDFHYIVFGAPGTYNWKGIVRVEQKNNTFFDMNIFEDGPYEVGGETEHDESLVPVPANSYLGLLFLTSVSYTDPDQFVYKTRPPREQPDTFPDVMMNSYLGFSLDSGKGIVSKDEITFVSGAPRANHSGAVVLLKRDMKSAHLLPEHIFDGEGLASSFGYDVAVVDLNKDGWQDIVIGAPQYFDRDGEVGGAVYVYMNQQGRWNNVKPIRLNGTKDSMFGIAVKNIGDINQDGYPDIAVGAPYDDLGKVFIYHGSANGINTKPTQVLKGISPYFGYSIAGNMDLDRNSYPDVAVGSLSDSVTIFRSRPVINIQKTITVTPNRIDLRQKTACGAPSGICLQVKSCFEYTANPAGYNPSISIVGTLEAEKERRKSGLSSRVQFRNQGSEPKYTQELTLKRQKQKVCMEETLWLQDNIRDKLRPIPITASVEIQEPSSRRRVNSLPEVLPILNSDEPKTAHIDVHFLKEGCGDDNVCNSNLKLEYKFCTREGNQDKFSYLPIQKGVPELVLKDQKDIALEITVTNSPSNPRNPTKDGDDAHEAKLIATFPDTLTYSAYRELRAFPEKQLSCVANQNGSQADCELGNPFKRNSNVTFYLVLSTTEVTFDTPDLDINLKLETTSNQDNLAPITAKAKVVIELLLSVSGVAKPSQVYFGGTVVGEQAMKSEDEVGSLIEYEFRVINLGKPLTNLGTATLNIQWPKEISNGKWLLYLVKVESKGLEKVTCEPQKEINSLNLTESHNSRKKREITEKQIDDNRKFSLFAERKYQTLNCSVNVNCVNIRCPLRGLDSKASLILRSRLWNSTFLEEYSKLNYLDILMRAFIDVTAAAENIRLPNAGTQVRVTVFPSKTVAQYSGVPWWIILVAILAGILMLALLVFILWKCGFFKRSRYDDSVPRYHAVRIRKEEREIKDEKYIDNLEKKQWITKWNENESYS

T2: CREG1 (Homo sapiens (Human), UniProt O75629 32-220)
T2 sequence: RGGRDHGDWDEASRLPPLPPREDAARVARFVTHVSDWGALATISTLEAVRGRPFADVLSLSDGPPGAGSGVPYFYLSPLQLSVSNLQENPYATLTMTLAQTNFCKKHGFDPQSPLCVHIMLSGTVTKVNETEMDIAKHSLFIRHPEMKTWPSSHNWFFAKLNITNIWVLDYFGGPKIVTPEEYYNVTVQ

T3: RAET1E (Homo sapiens (Human), UniProt Q8TD07 31-225)
T3 sequence: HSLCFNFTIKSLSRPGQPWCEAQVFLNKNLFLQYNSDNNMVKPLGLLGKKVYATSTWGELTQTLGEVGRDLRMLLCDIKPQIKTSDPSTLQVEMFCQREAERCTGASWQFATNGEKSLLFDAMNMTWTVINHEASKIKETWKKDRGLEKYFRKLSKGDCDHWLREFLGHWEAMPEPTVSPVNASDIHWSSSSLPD

T4: AGR3 (Homo sapiens (Human), UniProt Q8TD06 22-166)
T4 sequence: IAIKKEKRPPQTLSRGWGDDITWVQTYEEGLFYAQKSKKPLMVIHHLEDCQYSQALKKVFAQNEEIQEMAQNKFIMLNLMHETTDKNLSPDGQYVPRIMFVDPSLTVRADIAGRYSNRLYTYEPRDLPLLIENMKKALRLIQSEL

B1: PD1-45D6 (antibody, V domains shown)
VH: QVQLVESGGGVVQPGRSLRLSCAASGFTFSSYAMHWVRQVPGKGLEWVAVISYDGNDKYYADSVKGRFTISRDNSKNTLYLQMNSLRAEDTAVYYCVPTTFEYWGQGSQVTVSS
VL: DIVMTQTPLSLPVTPGEAASISCRSSQSLLDSDDGKTYLDWYLQKPGQSPQLLIYTLSYRASGVPDRFSGSGSGTEFNLRISRVEAEDVGIYYCMQRVEFPFTFGQGTKLDIK
notes: scFv-phage in the screening ELISA; whole IgG in the other assays
B2: PD1-52E8 (antibody, V domains shown)
VH: QVQLVQSGGNLVQPGRSLRLSCAASGFTFDDYAMHWVRQAPGKGLEWVSGISWNSGTPGYADSVQGRFTISRDNAKNSLYLQMNSLRAEDTAVYYCARGHNYLDSSYYDYWGQGTLVTVSS
VL: SYELTQPLSLSVAPGQTARITCSGDALSKEYSYWYQQKPGQAPVLVMYKDSERPSGIPERFSGSSSGTTVTLTISGVQAEDEADYYCQSVDSSDTSVVFGGGTKLTVL
notes: as for B1
B3: PD1-41C9 (antibody, V domains shown)
VH: QMQLVESGGGVVQPGRSLRLSCAASGFTFSSYAMHWVRQAPGKGLEWVAVISYDGSNKYYADSVKGRFTISRDNSKNTLYLQMNRLRSEDTAVYYCTTTTFDSWGQGTLITVSS
VL: DIVMTQTPLSLPVTPGEAASISCRSSQSLLDSEDGNTYLDWYLQKPGQSPQLLIYTLSHRASGVPDRFSGSGSGTDFTLKISRVAAEDVGLYYCLQRMGFPYTFGQGTKLDIK
notes: as for B1
B4: PD1-49A2 (antibody, V domains shown)
VH: B3 VH with M2V, S75P, R85S, S88A, Q106R, I110V
VL: B3 VL with T7S, A18P, L30F, E33D, A85E, L91I, L110V, D111E
notes: scFv-phage in the screening ELISA; whole IgG in the other assays; also called Parent 49A2

The binders below were run against T5, M7 (assay: scFv-phage ELISA).
T5 construct: also called PD1 mutant M7

| Binder | OD490 |
| --- | --- |
| B1 | 0.5 |
| B2 | 1 |
| B3 | 0.8 |
| B4 | 0.4 |

The binders below were run against T6, M7-2 (assay: scFv-phage ELISA).
T6 construct: also called PD1 mutant M7-2

| Binder | OD490 |
| --- | --- |
| B1 | 4 |
| B2 | 3.9 |
| B3 | 3 |
| B4 | 2.2 |

What follows are binders tested against T7, M5-1 (assay: scFv-phage ELISA).
T7 construct: also called PD1 mutant M5-1

| Binder | OD490 |
| --- | --- |
| B1 | 3.8 |
| B2 | 0.3 |
| B3 | 2.8 |
| B4 | 0.7 |

What follows are binders tested against T8, M6 (assay: scFv-phage ELISA).
T8 construct: also called PD1 mutant M6

| Binder | OD490 |
| --- | --- |
| B1 | 3.9 |
| B2 | 3.4 |
| B3 | 3.6 |
| B4 | 3.9 |

Each binder was assayed against T9, M5-2 (assay: scFv-phage ELISA).
T9 construct: also called PD1 mutant M5-2

| Binder | OD490 |
| --- | --- |
| B1 | 3.9 |
| B2 | 3.5 |
| B3 | 3.6 |
| B4 | 3.8 |

The binders below were run against T10, M8 (assay: scFv-phage ELISA).
T10 construct: also called PD1 mutant M8

| Binder | OD490 |
| --- | --- |
| B1 | 3.8 |
| B2 | 0.6 |
| B3 | 2.5 |
| B4 | 3 |

Each binder was assayed against T11, M12 (assay: scFv-phage ELISA).
T11 construct: also called PD1 mutant M12

| Binder | OD490 |
| --- | --- |
| B1 | 3.9 |
| B2 | 3.2 |
| B3 | 3.1 |
| B4 | 3.9 |

These binders were tested against T12, M9 (assay: scFv-phage ELISA).
T12 construct: also called PD1 mutant M9

| Binder | OD490 |
| --- | --- |
| B1 | 3.8 |
| B2 | 2.4 |
| B3 | 3.3 |
| B4 | 3.7 |

The binders below were run against T1, ITGA6-Fc (assay: scFv-phage ELISA).

| Binder | OD490 |
| --- | --- |
| B1 | 0.5 |
| B2 | 0.1 |
| B3 | 0.5 |
| B4 | 0.2 |

What follows are binders tested against T13, M14 (assay: scFv-phage ELISA).
T13 construct: also called PD1 mutant M14

| Binder | OD490 |
| --- | --- |
| B1 | 3.9 |
| B2 | 2.6 |
| B3 | 3.5 |
| B4 | 3.9 |

What follows are binders tested against T14, M1-1 (assay: scFv-phage ELISA).
T14 construct: also called PD1 mutant M1-1

| Binder | OD490 |
| --- | --- |
| B1 | 3.8 |
| B2 | 1.5 |
| B3 | 3.1 |
| B4 | 3.4 |

What follows are binders tested against T15, M5 (assay: scFv-phage ELISA).
T15 construct: also called PD1 mutant M5

| Binder | OD490 |
| --- | --- |
| B1 | 3.6 |
| B2 | 0.5 |
| B3 | 2.3 |
| B4 | 1.2 |

Each binder was assayed against T16, M3 (assay: scFv-phage ELISA).
T16 construct: also called PD1 mutant M3

| Binder | OD490 |
| --- | --- |
| B1 | 3.8 |
| B2 | 1.5 |
| B3 | 2.3 |
| B4 | 3.4 |

These binders were tested against T17, M13 (assay: scFv-phage ELISA).
T17 construct: also called PD1 mutant M13

| Binder | OD490 |
| --- | --- |
| B1 | 4 |
| B2 | 3.9 |
| B3 | 3.6 |
| B4 | 3.9 |

What follows are binders tested against T18, M1 (assay: scFv-phage ELISA).
T18 construct: also called PD1 mutant M1

| Binder | OD490 |
| --- | --- |
| B1 | 4 |
| B2 | 1.4 |
| B3 | 3.2 |
| B4 | 3 |

These binders were tested against T19, M4 (assay: scFv-phage ELISA).
T19 construct: also called PD1 mutant M4

| Binder | OD490 |
| --- | --- |
| B1 | 3.9 |
| B2 | 3.7 |
| B3 | 3.2 |
| B4 | 3.9 |

Each binder was assayed against T20, M1-2 (assay: scFv-phage ELISA).
T20 construct: also called PD1 mutant M1-2

| Binder | OD490 |
| --- | --- |
| B1 | 3.9 |
| B2 | 3.6 |
| B3 | 3.2 |
| B4 | 3.8 |

These binders were tested against T21, M10 (assay: scFv-phage ELISA).
T21 construct: also called PD1 mutant M10

| Binder | OD490 |
| --- | --- |
| B1 | 3.9 |
| B2 | 1 |
| B3 | 3.4 |
| B4 | 2.6 |

The binders below were run against T22, M2 (assay: scFv-phage ELISA).
T22 construct: also called PD1 mutant M2

| Binder | OD490 |
| --- | --- |
| B1 | 0.4 |
| B2 | 0.2 |
| B3 | 0.8 |
| B4 | 0.3 |

Each binder was assayed against T23, M7-1 (assay: scFv-phage ELISA).
T23 construct: also called PD1 mutant M7-1

| Binder | OD490 |
| --- | --- |
| B1 | 1.3 |
| B2 | 1.1 |
| B3 | 1.2 |
| B4 | 0.5 |

The binders below were run against T2, CREG1 (assay: ELISA).

| Binder | binding result |
| --- | --- |
| B1 | no binding (tested: 1 ug/ml) |
| B3 | no binding (tested: 1 ug/ml) |
| B4 | no binding (tested: 1 ug/ml) |

The binders below were run against T3, RAET1E (assay: ELISA).

| Binder | binding result |
| --- | --- |
| B1 | no binding (tested: 1 ug/ml) |
| B3 | no binding (tested: 1 ug/ml) |
| B4 | no binding (tested: 1 ug/ml) |

Each binder was assayed against T4, AGR3 (assay: ELISA).

| Binder | binding result |
| --- | --- |
| B1 | no binding (tested: 1 ug/ml) |
| B3 | no binding (tested: 1 ug/ml) |
| B4 | no binding (tested: 1 ug/ml) |
